In US20110052551A1, “CARDIAC MYOCYTE MORPHOGENIC COMPOSITIONS AND METHODS OF USE THEREFOR” (priority 2008, published 2011):

Experiments:
Format in all cases: cell-based, mice
unfractionated BMMNCs [1] = assay: qRT-PCR of Wnt3a and β-catenin expression in cultured BMMNCs; details: 21 days, relative to baseline
Experimental: (§1) Assessment of mRNA expression by quantitative real-time RT-PCR (qRT-PCR). All qRT-PCR reagents and primers were purchased from Qiagen Inc. (Valencia, Calif., United States of America). Prior to mRNA extraction, cell number was determined and calculated by Trypan blue exclusion. cDNA was generated from freshly isolated (designated as baseline) and cultured unfractionated BMMNCs at days 0, 3, 7, and 21 (see FIG. 9A) using QUANTISCRIPT REVERSE TRANSCRIPTASE™ (Qiagen Inc., Valencia, Calif., United States of America) contained in RT master mix of Cell to cDNA kits according to manufacturer's protocol. […]
To avoid amplification of contaminating DNA, all validated qRT-PCR primers were designed to cross […] sequences within the cDNA to be amplified. Quantitative qRT-PCR analysis was performed in an ABI Prism 7900H sequence detection system (Applied Biosystems, Foster City, Calif.) using QUANTITECT™ SYBR® Green Real Time PCR kits. Each 50 μl qRT-PCR reaction contained 2 μl (approximately 50 ng) of cDNA, 5 μl of 1× primer mix (containing approximately 500 nM sense and anti-sense primers) and 25 μl of 2× QUANTITECT™ SYBR® Green master mix. […]
The PCR product level is calculated from the threshold cycle (Ct). That is, the amplification cycle number at which exponential PCR-generated gene-specific fluorescence is first detected (above a fixed threshold level). […]

unfractionated BMMNCs [2] = assay: qRT-PCR of cardiac-specific mRNA levels in cultured BMMNCs; details: 21 days of culture
From the text: Induction of differentiation. To assess the influence of ectopic expression of Wnt11 on BMMNC differentiation, Wnt11 conditioned medium (Wnt11-CM) was generated. Specifically, unfractionated BMMNCs were co-cultured with Wnt11-expressing HEK-293 cells (Wnt11/293-2; designated as Wnt11-CM), under the same conditions used to culture BMMNCs. In order to achieve strict separation of cell types during co-culture experiments, BMMNC and Wnt11/293 cells were separated into upper and lower chambers of a TRANSWELL® co-culture system. […]
as §1, with “All qRT-PCR reagents and primers were purchased from Qiagen Inc. (Valencia, Calif., United States of America).” left out
To avoid amplification of contaminating DNA, all validated qRT-PCR primers were designed to cross […] sequences within the cDNA to be amplified. Quantitative qRT-PCR analysis was performed in an ABI Prism 7900H sequence detection system (Applied Biosystems, Foster City, Calif.) using QUANTITECT™ SYBR® Green Real Time PCR kits. […]

unfractionated BMMNCs [3] = assay: Proliferation of unfractionated BMMNCs (Trypan blue cell count); details: cultures initiated with 10^4 cells
Experimental: Assessment of cellular proliferation. To study proliferation within each experimental group, unfractionated BMMNCs (n=1×10^4) were cultured as above in separate experiments (see FIG. 9A). Cells were monitored by phase contrast microscopy during culture in a humidified 5% CO2 incubator at 37° C. for up to 21 days. The medium was replenished every 6 days and expanded cells were harvested by trypsinization and gentle resuspension on days 8, 16, and 21. Cell number and viability was determined by Trypan blue staining, and the fold-increase in cell number over time was analyzed.

B1: Wnt3a: recombinant Wnt3a protein, canonical Wnt, used at 150 ng/ml (protein, UniProt P56704 19-352, looked up)
Protein Wnt-3a: SYPIWWSLAVGPQYSSLGSQPILCASIPGLVPKQLRFCRNYVEIMPSVAEGIKIGIQECQHQFRGRRWNCTTVHDSLAIFGPVLDKATRESAFVHAIASAGVAFAVTRSCAEGTAAICGCSSRHQGSPGKGWKWGGCSEDIEFGGMVSREFADARENRPDARSAMNRHNNEAGRQAIASHMHLKCKCHGLSGSCEVKTCWWSQPDFRAIGDFLKDKYDSASEMVVEKHRESRGWVETLRPRYTYFKVPTERDLVYYEASPNFCEPNPETGSFGTRDRTCNVSSHGIDGCDLLCCGRGHNARAERRREKCRCVFHWCCYVSCQECTRVYDVHTCK
increase in β-catenin expression (unfractionated BMMNCs [1]): 183.4±0.3 fold
cardiac-specific transcripts (unfractionated BMMNCs [2]): no cardiac-specific transcripts were detected
increase in cell number (unfractionated BMMNCs [3]; day 16): 110±0.1 fold
increase in cell number (unfractionated BMMNCs [3]; day 21): 297±0.1 fold
